From patent US20220228157A1, “GENE EDITING IN DIVERSE BACTERIA” (priority 2019, published 2022)

Legend:
E. coli MG1655 = test: Single-cycle multiplex genome editing with oligo pools, read out by NGS; assay type: cell-based, Escherichia coli; details: for Average editing efficiency at all loci: 19 simultaneous edits
Procedure: CspRecT was then tested at a variety of more complex genome editing tasks. For longer strings of consecutive mismatches, which are lower efficiency events, CspRecT was again about twice as efficient as Redβ. […] To further investigate the performance of CspRecT at complex, highly multiplexed genome editing tasks, a set of 20 oligos spaced evenly around the E. coli genome was designed, each of which incorporates a single-nucleotide synonymous mutation at a non-essential gene. Next, while expressing Redβ, PapRecT, and CspRecT separately from the corresponding pORTMAGE plasmid, a single cycle of genome editing was performed with equimolar pools of 1, 5, 10, 15, and 20 oligos and assayed editing efficiency at each locus by PCR amplification coupled to targeted next generation sequencing (NGS). […] For instance, when making 19 simultaneous edits (one oligo from the pool of 20 could not be read out due to inconsistencies in allelic amplification), CspRecT averaged 5.1% editing efficiency at all loci, whereas Redβ and PapRecT averaged only 0.40% and 0.43%. Importantly, despite keeping total oligo concentration fixed across all pools, aggregate editing efficiency increased as more oligos were present in each pool. For instance, when using CspRecT with a 19-oligo pool, aggregate editing efficiency was nearly 100%, implying that across the total recovered population of E. coli there averaged one edit per cell.
To measure single locus editing, a recombineering cycle was run with an oligo that confers a single base pair non-coding mismatch in a non-essential gene. The allele was then amplified by PCR and editing efficiency was measured by NGS as described above. To test multiplex editing, the concentration of oligo was held fixed (10 μM in the final electroporation mixture), but the total number of oligos in the mixture was varied. Pools of oligos to test editing at 5, 10, 15, or 20 alleles simultaneously were designed so as to space the edits relatively evenly around the genome. The 5-oligo pool contained oligo #'s 3,7,11,15,17, the 10-oligo pool added oligo #'s 1,5,9,13,19, the 15-oligo pool added oligo #'s 4,8,12,16,18, and the final 20-oligo pool contained silent mismatch MAGE oligos.

[1] = system: 90 bp oligos pre-coated with SSB; test: Oligonucleotide annealing and quenching in vitro; assay type: biochemical
From the text: It was first whether two 90 bp oligos could anneal if they were pre-coated with SSB. SSBs was purified from E. coli (gram-negative), where most recombineering work has been performed, and L. lactis (gram-positive), a lactic acid bacterium phylogenetically distantly related to E. coli. […] It was next tested capacity of a phage RecT protein to overcome this SSB-mediated inhibition of annealing. Thus, Redβ, which is not broadly portable, but mediates efficient oligonucleotide annealing in E. coli, was purified. […] These preliminary results gave us an indication that while bacterial SSBs inhibit oligonucleotide annealing in vitro, RecTs overcome the inhibitory effect in an SSB-specific manner.
Fluorescent (tolC-r.null.mut-3′FAM) and quenching (tolC-f.null.mut-5′IBFQ) oligos were ordered from Integrated DNA Technologies. Unless otherwise indicated, 50 nM of each oligo was incubated in 25 mM TRIS-HCl pH 7.4 with 1.0 μM Ec_SSB or Ll_SSB at 30° C. for 30 minutes. 100 μl of each oligo mixture were then combined into a 96-well clear-bottom black assay plate (Costar), incubated a further 60 minutes at 30° C., and annealing was tracked on a Synergy H4 microplate reader (BioTek) with fluorescence excitation set to 495 nm and emission set to 520 nm. After 60 minutes, 20 μl of a solution with or without 25 μM Redβ and containing 100 mM MgCl2 was added to achieve a final reaction concentration of 2.5 μM Redβ and 10 mM MgCl2. The annealing was then tracked over 10 hours in a the Synergy H4 microplate reader with the setting indicated above.

E. coli = test: lacZ recombineering assay (blue/white screening); assay type: cell-based, Escherichia coli; details: for Editing efficiency, 18-bp consecutive mismatches into lacZ / Editing efficiency, 30-bp consecutive mismatches into lacZ: wild type E. coli MG1655
Procedure: Top individual SSAPs (SEQ ID NO: 157 and SEQ ID NO: 24, using Redβ as a control) were expressed in E. coli from a lambda pL promoter. The mutational profile of edits are shown in FIG. 5, including the efficiency of introducing 18-nucleotide (NT) and 30-NT mismatches. Efficiency was measured by disruption of LacZ, plating on X-gal, and counting the number of blue vs. white colonies. In contrast to FIG. 1A, a high over-performance by the SSAP (SEQ ID NO: 157) alone was observed when it was driven off of a more efficient promoter.
To maximize the phylogenetic reach and applicability of these new tools, CspRecT was characterized, alongside Redβ and PapRecT, subcloned into the pORTMAGE plasmid system (FIGS. 10A-10B, Addgene accession: #120418). This plasmid contains a broad-host RSF1010 origin of replication, establishes tight regulation of protein expression with an m-toluic-acid inducible expression system, and disables MMR by transient overexpression of a dominant-negative mutant of E. coli MutL (MutL E32K) (Nyerges et al., Proc. Natl. Acad. Sci. U.S.A. 113, 2502-2507 (2016)), which makes it possible to establish high-efficiency editing without modification of the host genome. […] This pORTMAGE plasmid expressing CspRecT was referred to as pORTMAGE-Ec1 (Addgene).
Oligos were designed to introduce I) premature STOP codons into lacZ for E. coli, K. pneumoniae, and C. freundii, or II) RpsL K43→R; GyrA T83→I; ParC S83→L; RpoB D521→V, or a premature STOP codon into nfxB for P. aeruginosa. Oligo-mediated recombineering was performed as described above on all bacterial strains. After recovery overnight, cells were plated at empirically-determined dilutions to a density of 200-500 colonies per plate. In the case of LacZ screening, plating was assayed on MacConkey agar plates or on X-Gal/IPTG LB^L agar plates in the case of K. pneumoniae. In the case of selective antibiotic screening, cultures were plated onto both selective and non-selective plates. Selective antibiotic concentrations used were the same as those described for the selective testing above, except that in P. aeruginosa 100 μg/ml STR and 1.5 μg/ml CIP were used unless otherwise noted. Variants that were resistant to multiple antibiotics were selected on LB^L agar plates that contained the combination of all corresponding antibiotics. Non-selective plates were antibiotic-free LB^L agar plates. In all cases, allelic-replacement frequencies were calculated by dividing the number of recombinant CFUs by the number of total CFUs. Plasmid maintenance was ensured by supplementing all media and agar plates with either KAN (50 μg/ml) or GEN (20 μg/ml). Minimum Inhibitory Concentration (MIC) Measurement in P. aeruginosa

[2] = wild-type E. coli MG1655, pORTMAGE plasmid

B1: PapRecT: SSAP from Pseudomonas aeruginosa, SEQ ID NO: 24, UniParc ID: UPI0001E9E6CB (protein, listed as Pseudomonas aeruginosa)
chain: MGTALTPLLTKFATRYEMGTTPEEVANTLKQTCFKGQVNDSQMVALLIVADQYKLNPFTKELYAFPDKNNGIVPVVGVDGWARIINENPQFDGMEFSMDQQGTECTCKIYRKDRSHAISATEYMAECKRNTQPWQSHPRRMLRHKAMIQCARLAFGFAGIYDQDEAERIVERDVTPAEQYEDVSEAICLIKDSPTMEDLQAAFSNAWKAYKTKGARDQLTAAKDQRKKELLDAPIDVEFEETGDDRAA
- Average editing efficiency at all loci (E. coli MG1655): 0.43%
- Annealing kinetics in vitro [1]: improved annealing kinetics in vitro

B2: Redβ: Redβ SSAP from Enterobacteria phage λ, SEQ ID NO: 474 (protein)
chain: MSTALATLAGKLAERVGMDSVDPQELITTLRQTAFKCDASDAQFIALLIVANQYGLNPWTKEIYAFPDKQNGIVPVVGVDGWSRIINENQQFDGMDFEQDNESCTCRIYRKDRNHPICVTEWMDECRREPFKTREGREITGPWQSHPKRMLRHKAMIQCARLAFGFAGIYDKDEAERIVENTAYTAERQPERDITPVNDETMQEINTLLIALDKTWDDDLLPLCSQIFRRDIRASSELTQAEAVKALGFLKQKATEQKVAA
modifications: Bacteriophage Lambda
- Editing efficiency, 18-bp consecutive mismatches into lacZ (E. coli): 3%
- Editing efficiency, 30-bp consecutive mismatches into lacZ (E. coli): 1%
- Average editing efficiency at all loci (E. coli MG1655): 0.40%
- Ability to overcome SSB-mediated inhibition of annealing [1]: overcame the inhibitory effect of EcSSB but not L1SSB

B3: CspRecT: RecT SSAP (UniParc ID: UPI0001837D7F) from a phage of Collinsella stercoris (protein)
chain: MNQIVKFTDDSGLAVQVTPDDVRRYICENATEKEVGLFLQLCQTQRLNPFVKDAYLVKYGGAPASMITSYQVFNRRACRDANYDGIKSGVVVLRDGDVVHKRGAACYKKAGEELIGGWAEVRFKDGRETAYAEVALDDYSTGKSNWAKMPGVMIEKCAKAAAWRLAFPDTFQGMYAAEEMDQAQQPEQVRAQAEQPVDLQPIRELFKPYCEHFGITPAEGMTAVCGAVGAEGMHSMTEQQARRARAWMEEEMAAPAVEAEYEVVDEGEVF
modifications: Collinsella stercoris DSM 13279
- Editing efficiency relative to other SSAPs (E. coli; E. coli, lambda pL promoter): about double the efficiency of Redβ or SSAP SEQ ID NO: 24
- Editing efficiency, 18-bp consecutive mismatches into lacZ (E. coli): 6%
- Editing efficiency, 30-bp consecutive mismatches into lacZ (E. coli): 3%
- Editing efficiency, average over single-base mismatches (E. coli; [2]): 43%
- Editing efficiency, various single-base mismatches (E. coli; [2]): 35-51%
- Aggregate editing efficiency (E. coli MG1655; 19-oligo pool): ~100%
- Average editing efficiency at all loci (E. coli MG1655): 5.1%
